Experiments:
[1] = target: T1, human TIGIT, full length, on cells (human, UniProt Q495A1 22-244); assay: flow cytometry, inhibition of hCD155-Fc binding to CHO-hTIGIT cells
T1 construct: also called hTIGIT; hTIGIT-CHO
T1 sequence: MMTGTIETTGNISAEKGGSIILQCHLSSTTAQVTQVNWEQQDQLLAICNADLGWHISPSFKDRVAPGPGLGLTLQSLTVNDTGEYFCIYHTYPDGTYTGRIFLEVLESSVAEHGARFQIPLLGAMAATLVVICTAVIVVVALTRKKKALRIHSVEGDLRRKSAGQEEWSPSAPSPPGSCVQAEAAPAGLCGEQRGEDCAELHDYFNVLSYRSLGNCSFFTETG
Procedure: The activity of Hu24F8.1-IgG1.AA and Hu24F8.2-IgG1.AA to block the interaction of TIGIT with CD155 was analyzed by flow cytometry using CHO cells stably overexpressing human TIGIT (CHO-hTIGIT) and human CD155-Fc fusion recombinant soluble protein (hCD155-Fc), as described in Example 1. […] The IC₅₀ for Hu24F8.1-IgG1.AA to block the TIGIT-CD155 interaction was 0.68 nM, and for Hu24F8.2-IgG1.AA it was 0.67 nM.

[2] = target: T1, human TIGIT, full length, on cells; assay: cell-based or functional assay
[3] = target: T2, cynomolgus monkey TIGIT, full length, on cells (cynomolgus monkey); assay: flow cytometry on stable CHO-K1 cells expressing cyno TIGIT (clone C10); cyno TIGIT, CHO-K1 clone C10, n=6
T2 construct: Whole entry of 312 amino acids; also called cyno TIGIT; cTIGIT
Procedure: (§1) Binding of antibodies Hu24F8.1-IgG1.AA and Hu24F8.2-IgG1.AA to TIGIT expressed on cell surface was examined by flow cytometry. Cells expressing TIGIT on cell surface were collected and incubated in 100 μL of HBSS Buffer in the presence (or absence) of various concentrations of antibody for 1 hr at 4° C. After washing with HBSS, antibody binding on cells was detected with 2 μg/mL of Alexa488-labeled goat anti-human IgG antibody (ThermoFisher Scientific, Cat #A-11013) for 30 min at 4° C. Cells were then washed and resuspended in PBS and subjected to flow cytometry using a Attune NxT flow cytometer (ThermoFisher Scientific, Waltham, Mass.). GeoMean of fluorescence intensity was obtained for the whole single cell population, and for transient transfection, non-transfected cells were used to gate for the positive binding cell population to obtain percent of positive cells. Data was calculated by GraphPad Prism using the standard 4-parameter curve fitting.
(§2) Stable CHO-K1 cell lines expressing human TIGIT (clone 2A7) and cyno TIGIT (clone C10) were used to test Hu24F8.1-IgG1.AA and Hu24F8.2-IgG1.AA for their binding to human TIGIT and cyno TIGIT, respectively, as described above. […] Hu24F8.2-IgG1.AA bound to human TIGIT with an EC₅₀ 0.29±0.15 nM (n=8) (FIG. 3A) and to cyno TIGIT with an EC₅₀ of 0.35±0.16 nM (n=6) (FIG. 3B).

[4] = target: T1, human TIGIT, full length, on cells; assay: flow cytometry on stable CHO-K1 cells expressing human TIGIT (clone 2A7); human TIGIT, CHO-K1 clone 2A7, n=8
Procedure: as §1, §2

hTIGIT-His = target: T3, hTIGIT-His (human); assay: SPR, Biacore T200, antibody captured on anti-human IgG chip, hTIGIT-His as analyte
T3 construct: also called His-tagged human TIGIT protein extracellular domain; soluble hTIGIT-His
T3 chain: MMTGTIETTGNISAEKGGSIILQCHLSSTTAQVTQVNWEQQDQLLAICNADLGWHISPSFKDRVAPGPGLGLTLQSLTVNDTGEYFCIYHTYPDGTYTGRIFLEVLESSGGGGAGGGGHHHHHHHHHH
Procedure: (§3) The purified, full-length antibodies Hu24F8.1-IgG1.AA (containing VH1+VL2) and Hu24F8.2-IgG1.AA (containing VH2+VL2), together with the full-length chimera antibody of 24F8 mouse VH+VL and human IgG1/kappa constant domains (Ch24F8), were analyzed by SPR using a Biacore T200 instrument with antibody capture using an anti-human IgG coated chip and soluble hTIGIT-His or cTIGIT-His as the analyte.

cTIGIT-His = target: T4, cTIGIT-His (cynomolgus monkey); assay: SPR, Biacore T200, antibody captured on anti-human IgG chip, cTIGIT-His as analyte
T4 construct: also called His-tagged cyno TIGIT protein extracellular domain; soluble cTIGIT-His
T4 chain: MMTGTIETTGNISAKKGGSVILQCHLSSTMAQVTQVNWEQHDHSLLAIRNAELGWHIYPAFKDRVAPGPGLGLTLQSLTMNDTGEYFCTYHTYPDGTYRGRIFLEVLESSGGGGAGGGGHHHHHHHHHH
Procedure: as §3

B1: Hu24F8.1-IgG1.AA (antibody, V domains shown)
VH: QVQLQESGPGLVKPSETLSLTCAVYGYSITSGYSWHWIRQPPGKGLEWIGYVHYSGSTNYNPSLKSRVTISVDTSKNQFSLKLSSVTAADTAVYYCARMDYGNYGGAMDYWGQGTLVTVSS
VL: EIVMTQSPATLSVSPGERATLSCKASQDVRTAVAWYQQKPGQAPRLLIYSASYRYTGIPARFSGSGSGTEFTLTISSLQSEDFAVYYCQQYYSTQWTFGGGTKVEIKR
notes: IgG1/kappa; also called Hu24F8.1 (VH1+VL2), IgG1/kappa with L234A/L235A
With B1 the IC50 [1] was 680 pM, the “EC50 of luciferase reporter activity, TIGIT/CD155 Blockade Bioassay (Jurkat cells overexpressing TIGIT with CD155 aAPC/CHO-K1 cells)” value [2] was 3350 pM and the EC50 [3] was 237 pM. For the same binder, the EC50 [4] was 447 pM, the Kd (hTIGIT-His) was 144 pM and the koff (hTIGIT-His) was 0.000145 s⁻¹. For the same binder, the kon (hTIGIT-His) was 1.01e+06 M⁻¹ s⁻¹, the Kd (cTIGIT-His) was 1740 pM and the koff (cTIGIT-His) was 0.0014 s⁻¹. It also gave a kon (cTIGIT-His) of 806000 M⁻¹ s⁻¹.

Reference: patent US20220064294A1 (ARCUS BIOSCIENCES, published 2022)
